In the supplement of paper PMC7877785:
± gives the uncertainty stated by the source.

Experiment: self-splicing fitness, log relative to wild type (ln ratio); higher = more splicing; Tetrahymena group I intron in knt gene, E. coli kanamycin selection, DiMSum; sequences stand for … in CUCUCU…GGAGGGAAAAGUUAUCAGGCAUGCACCUGGUAGCUAGUCUUUAAACCAAUAGAUUGCAUCGGUUUAAAAGGCAAGACCGUCAAAUUGCGGGAAAGGGGUCAACAGCCGUUCAGUACCAAGUCUCAGGGGAAACUUUGAGAUGGCCUUGCAAAGGGUAUGGUAAUAAGCUGACGGACAUGGUCCUAACCACGCAGCCAAGUCCUAAGUCAACAGAUCUUCUGUUGAUAUGGAUGCAGUUCACAGACUAAAUGUCGGUCGGGGAAGAUGUAUUCUUCUCAUAAGAUAUAGUCGGACCUCUCCUUAAUGGGAGCUAGCGGAUGAAGUGAUGCAACACUGGAGCCGCUGGGAACUAAUUUGUAUGCGAAAGUAUAUUGAUUAGUUUUGGAGUACUCGUGGUCG
How it was run: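 The eight P1ex-region nucleotides of an intron in the knt kanamycin-resistance gene on pET-22b(+) were all randomised and the library put into E. coli BL21(DE3). Six replicate transformations were grown overnight at 37°C or 30°C on LB agar with or without 25 μg/mL kanamycin, together with 100 μg/mL carbenicillin, 50 μM IPTG and 0.2% rhamnose. Colonies were pooled and amplicon-sequenced on an Illumina HiSeq 2500. Fitness from DiMSum is the error-weighted combination of wild-type-normalised replicate fold changes, kanamycin over none.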

Sequence | self-splicing fitness (ln) (30 °C) | self-splicing fitness (ln) (37 °C)
UUAAAGCAAUAUUACGUAUG | -0.495 ± 0.068 | -0.0669 ± 0.097
UUAAAGCAAUAUUACGUAUU | -3.28 ± 0.15 | -2.75 ± 0.2
UUAAAGCAAUAUUACGUGAA | -1.8 ± 0.13 | -0.0245 ± 0.13
UUAAAGCAAUAUUACGUGCG | -0.23 ± 0.058 | -0.242 ± 0.085
UUAAAGCAAUAUUACGUGGC | -3.08 ± 0.15 | -2.98 ± 0.3
UUAAAGCAAUAUUACGUUUA | -0.747 ± 0.068 | -0.409 ± 0.09
UUACAGCAAUAUUACGAAAG | -2.87 ± 0.29 | -2.73 ± 0.33
UUACAGCAAUAUUACGACUC | -2.69 ± 0.24 | -1.28 ± 0.2
UUACAGCAAUAUUACGCAAG | -1.73 ± 0.1 | -0.345 ± 0.12
UUACAGCAAUAUUACGCGAG | -1.02 ± 0.085 | -0.72 ± 0.08
UUACAGCAAUAUUACGCGAU | -2.28 ± 0.18 | -1.75 ± 0.16
UUACAGCAAUAUUACGCGGA | -1.6 ± 0.12 | -0.823 ± 0.095
UUACAGCAAUAUUACGCUUA | -1.38 ± 0.11 | -0.114 ± 0.1
UUACAGCAAUAUUACGCUUC | -3.13 ± 0.37 | -2.99 ± 0.47
UUACAGCAAUAUUACGGACU | -2.05 ± 0.17 | -1.9 ± 0.17
UUACAGCAAUAUUACGGCUA | -0.676 ± 0.091 | 0.443 ± 0.11
UUACAGCAAUAUUACGGGAU | -3.85 ± 0.21 | -2.69 ± 0.13
UUACAGCAAUAUUACGGGCU | -3.86 ± 0.24 | -2.32 ± 0.18
UUACAGCAAUAUUACGGUAU | -1.96 ± 0.097 | -0.871 ± 0.1
UUACAGCAAUAUUACGUAAC | -3.72 ± 0.18 | -3.25 ± 0.24
UUACAGCAAUAUUACGUCAU | -3.77 ± 0.2 | -1.18 ± 0.12

Sequence | self-splicing fitness (ln) (30 °C) | self-splicing fitness (ln) (37 °C)
UUACAGCAAUAUUACGUCGG | -1.24 ± 0.08 | -0.125 ± 0.087
UUACAGCAAUAUUACGUGAC | -3.7 ± 0.21 | -1.81 ± 0.16
UUACAGCAAUAUUACGUUAA | -1.12 ± 0.11 | -0.847 ± 0.085
UUAGAGCAAUAUUACGAAAA | -1.66 ± 0.13 | -0.776 ± 0.15
UUAGAGCAAUAUUACGAAGA | -1.27 ± 0.13 | -0.451 ± 0.23
UUAGAGCAAUAUUACGAAGG | -1.72 ± 0.14 | -1.9 ± 0.23
UUAGAGCAAUAUUACGACAA | 0.166 ± 0.062 | 0.493 ± 0.09
UUAGAGCAAUAUUACGCAUA | -3.06 ± 0.27 | -0.817 ± 0.3
UUAGAGCAAUAUUACGGGUU | -4.25 ± 0.42 | -3.21 ± 0.35
UUAGAGCAAUAUUACGGUUA | -0.618 ± 0.15 | -1.17 ± 0.23
UUAGAGCAAUAUUACGUAGG | -2.7 ± 0.14 | -1.5 ± 0.15
UUAGAGCAAUAUUACGUCAA | -1.59 ± 0.16 | -1.15 ± 0.22
UUAGAGCAAUAUUACGUCAG | -1.02 ± 0.15 | -0.83 ± 0.17
UUAGAGCAAUAUUACGUCUA | -0.712 ± 0.071 | -0.109 ± 0.11
UUAGAGCAAUAUUACGUUUU | -3.39 ± 0.32 | -2.3 ± 0.27
UUAUAGCAAUAUUACGAAUC | -2.06 ± 0.4 | -1.85 ± 0.48
UUAUAGCAAUAUUACGACUA | -0.12 ± 0.23 | -0.299 ± 0.2
UUAUAGCAAUAUUACGAGGG | -3.47 ± 0.26 | -2.3 ± 0.27
UUAUAGCAAUAUUACGAGUG | -1.06 ± 0.11 | -1.32 ± 0.2
UUAUAGCAAUAUUACGAUUU | -1.23 ± 0.11 | -0.501 ± 0.13
UUAUAGCAAUAUUACGCACU | -1.15 ± 0.16 | -0.214 ± 0.21
